Assay results published in the supplement of paper PMC11246515.
± gives the standard deviation of the averaged measurements.

Test: total protein half-life in vivo (active degradation + dilution); higher = more stable protein
[1] = E. coli NCM3722 delta-clpP delta-lon delta-hslV, growth: N-lim chemostat, doubling time 6 h
[2] = wild type E. coli NCM3722, growth: C-lim chemostat, doubling time 3 h
[3] = wild type E. coli NCM3722, growth: C-lim chemostat, doubling time 6 h
[4] = wild type E. coli NCM3722, growth: C-lim chemostat, doubling time 12 h
[5] = E. coli NCM3722 delta-clpP, growth: N-lim chemostat, doubling time 6 h
[6] = wild type E. coli NCM3722, growth: N-lim chemostat, doubling time 12 h
[7] = wild type E. coli NCM3722, growth: P-lim chemostat, doubling time 12 h
[8] = E. coli NCM3722 delta-hslV, growth: N-lim chemostat, doubling time 6 h
[9] = E. coli NCM3722 delta-lon, growth: N-lim chemostat, doubling time 6 h
[10] = E. coli NCM3722 delta-smpB, growth: N-lim chemostat, doubling time 6 h
[11] = wild type E. coli NCM3722, growth: N-lim chemostat, doubling time 6 h
[12] = wild type E. coli NCM3722, growth: P-lim chemostat, doubling time 6 h

In the case of “MSIAVTTTDPTNTGVSTTSSSSLTGSNAADLQSSFLTLLVAQLKNQDPTNPMENNELTSQLAQISTVSGIEKLNTTLGSISGQIDNSQSLQASNLIGHGVMIPGTTVLAGTGSEEGAVTTTTPFGVELQQAADKVTATITDKNGAVVRTIDIGELTAGVHSFTWDGTLTDGSTAPNGSYNVAISASNGGTQLVAQPLQFALVQGVIRGNSGNTLDLGTYGTTTLDEVRQII”, the “total protein half-life in vivo” value [1] is reported as 3.99 ± 0.28 h, the “total protein half-life in vivo” value [2] is reported as 0.36 ± 0.076 h and the “total protein half-life in vivo” value [3] is reported as 1.65 h. For the same sequence, the “total protein half-life in vivo” value [4] was 0.363 h.
With “MSIDFTPGIINTYHGDIYNCTTNTDNAKTPDTPKWPCDNWEEQQPINSTFSGEGYISDQYDLAQHQLQQINACHTNTTYTNADYSKVVAQLVSLITNIETISSTQLTQQTQSILNQINNIRYEKNKSAECRIIVIANPKPDKAIITKISVEEGIPITFSVQTMFSDTNFIAEQRADLPTNIKDIQSLYQKMTKLYIEHSENKNRMKVFAGTNFIDFNMTGQNLSGFVLTLSRFYFEDLLNINFTDANLGKVRISGEILLG” the “total protein half-life in vivo” value [5] was 5.86 h, the “total protein half-life in vivo” value [6] was 8.68 h and the “total protein half-life in vivo” value [7] was 14.6 h.
In the case of “MSIIKEFREFAMRGNVVDLAVGVIIGAAFGKIVSSLVADIIMPPLGLLIGGIDFKQFAVTLRDAQGDIPAVVMHYGVFIQNVFDFLIVAFAIFMAIKLINKLNRKKEEPAAAPAPTKEEVLLTEIRDLLKEQNNRS [P0A742]”, the “total protein half-life in vivo” value [1] is reported as 5.9 ± 0.17 h, the “total protein half-life in vivo” value [5] is reported as 5.99 ± 0.24 h and the “total protein half-life in vivo” value [8] is reported as 6.46 ± 0.16 h. For the same sequence, the “total protein half-life in vivo” value [9] was 5.9 ± 0.71 h, the “total protein half-life in vivo” value [10] was 6.222 ± 0.036 h and the “total protein half-life in vivo” value [2] was 3.17 ± 0.14 h. For the same sequence, the “total protein half-life in vivo” value [3] was 6.12 ± 0.27 h, the “total protein half-life in vivo” value [4] was 12.4 ± 1.9 h and the “total protein half-life in vivo” value [11] was 6.41 ± 0.12 h. The “total protein half-life in vivo” value [6] was 11.5 ± 2.5 h, the “total protein half-life in vivo” value [12] was 5.8 ± 0.23 h and the “total protein half-life in vivo” value [7] was 13.3 ± 1.1 h.
For “MSIKEQTLMTPYLQFDRNQWAALRDSVPMTLSEDEIARLKGINEDLSLEEVAEIYLPLSRLLNFYISSNLRRQAVLEQFLGTNGQRIPYIISIAGSVAVGKSTTARVLQALLSRWPEHRRVELITTDGFLHPNQVLKERGLMKKKGFPESYDMHRLVKFVSDLKSGVPNVTAPVYSHLIYDVIPDGDKTVVQPDILILEGLNVLQSGMDYPHDPHHVFVSDFVDFSIYVDAPEDLLQTWYINRFLKFREGAFTDPDSYFHNYAKLTKEEAIKTAMTLWKEINWLNLKQNILPTRERASLILTKSANHAVEEVRLRK [P0A6I3]”, the “total protein half-life in vivo” value [1] was 4.81 ± 0.35 h, the “total protein half-life in vivo” value [5] was 5.07 ± 0.72 h and the “total protein half-life in vivo” value [8] was 4.053 ± 0.029 h. The “total protein half-life in vivo” value [9] was 4.54 ± 0.22 h, the “total protein half-life in vivo” value [10] was 4.28 ± 0.39 h and the “total protein half-life in vivo” value [2] was 3.07 ± 0.17 h. For the same sequence, the “total protein half-life in vivo” value [3] was 5.71 ± 0.51 h, the “total protein half-life in vivo” value [4] was 8.55 ± 0.56 h and the “total protein half-life in vivo” value [11] was 4.41 ± 0.7 h. The “total protein half-life in vivo” value [6] was 7.123 ± 0.068 h, the “total protein half-life in vivo” value [12] was 5.6077 ± 0.0014 h and the “total protein half-life in vivo” value [7] was 12.5 ± 0.64 h.
For “MSIKNLPADYLLAAQQGDIDKVKTCLALGVDINTCDRQGKTAITLASLYQQYACVQALIDAGADINKQDHTCLNPFLISCLNDDLTLLRIILPAKPDLNCVTRFGGVGLTPACEKGHLSIVKELLAHTEINVNQTNHVGWTPLLEAIVLNDGGIKQQAIVQLLLEHGASPHLTDKYGKTPLELARERGFEEIAQLLIAAGA”, the “total protein half-life in vivo” value [1] was 5.2 h.
For “MSIKQMPGRVLISLLLSVTGLLSGCASHNENASLLAKKQAQNISQNLPIKSAGYTLVLAQSSGTTVKMTIISEAGTQTTQTPDAFLTSYQRQMCADPTVKLMITEGINYSITINDTRTGNQYQRKLDRTTCGIVKA”, the “total protein half-life in vivo” value [11] was greater than 8 h, the “total protein half-life in vivo” value [12] was 3.91 ± 0.68 h and the “total protein half-life in vivo” value [7] was 7.3 ± 0.4 h.
With “MSILVTRPSPAGEELVSRLRTLGQVAWHFPLIEFSPGQQLPQLADQLAALGESDLLFALSQHAVAFAQSQLHQQDRKWPRLPDYFAIGRTTALALHTVSGQKILYPQDREISEVLLQLPELQNIAGKRALILRGNGGRELIGDTLTARGAEVTFCECYQRCAIHYDGAEEAMRWQAREVTMVVVTSGEMLQQLWSLIPQWYREHWLLHCRLLVVSERLAKLARELGWQDIKVADNADNDALLRALQ” the “total protein half-life in vivo” value [1] was 5.34 ± 0.71 h, the “total protein half-life in vivo” value [5] was 4.14 ± 0.96 h and the “total protein half-life in vivo” value [8] was 4.13 ± 0.24 h. The “total protein half-life in vivo” value [9] was 4.69 ± 0.62 h, the “total protein half-life in vivo” value [10] was 3.57 ± 0.23 h and the “total protein half-life in vivo” value [2] was 2.351 ± 0.014 h. The “total protein half-life in vivo” value [3] was 4.45 ± 0.14 h, the “total protein half-life in vivo” value [4] was 9.45 ± 3.5 h and the “total protein half-life in vivo” value [11] was 3.83 ± 0.21 h. For the same sequence, the “total protein half-life in vivo” value [6] was 6.5 ± 0.57 h, the “total protein half-life in vivo” value [12] was 5.08 ± 0.62 h and the “total protein half-life in vivo” value [7] was 9.38 ± 0.13 h.
With “MSIPFTRWPEEFARRYREKGYWQDLPLTDILTRHAASDSIAVIDGERQLSYRELNQAADNLACSLRRQGIKPGETALVQLGNVAELYITFFALLKLGVAPVLALFSHQRSELNAYASQIEPALLIADRQHALFSGDDFLNTFVTEHSSIRVVQLLNDSGEHNLQDAINHPAEDFTATPSPADEVAYFQLSGGTTGTPKLIPRTHNDYYYSVRRSVEICQFTQQTRYLCAIPAAHNYAMSSPGSLGVFLAGGTVVLAADPSATLCFPLIEKHQVNVTALVPPAVSLWLQALIEGESRAQLASLKLLQVGGARLSATLAARIPAEIGCQLQQVFGMAEGLVNYTRLDDSAEKIIHTQGYPMCPDDEVWVADAEGNPLPQGEVGRLMTRGPYTFRGYYKSPQHNASAFDANGFYCSGDLISIDPEGYITVQGREKDQINRGGEKIAAEEIENLLLRHPAVIYAALVSMEDELMGEKSCAYLVVKEPLRAVQVRRFLREQGIAEFKLPDRVECVDSLPLTAVGKVDKKQLRQWLASRASA” the “total protein half-life in vivo” value [1] was 5.38 h, the “total protein half-life in vivo” value [5] was 4.77 h and the “total protein half-life in vivo” value [8] was 5.82 h. The “total protein half-life in vivo” value [2] was 2.73 ± 0.086 h, the “total protein half-life in vivo” value [3] was 5.32 h and the “total protein half-life in vivo” value [7] was 10.7 h.
With “MSIQLNGINCFYGAHQALFDITLDCPQGETLVLLGPSGAGKSSLLRVLNLLEMPRSGTLNIAGNHFDFTKTPSDKAIRDLRRNVGMVFQQYNLWPHLTVQQNLIEAPCRVLGLSKDQALARAEKLLERLRLKPYSDRYPLHLSGGQQQRVAIARALMMEPQVLLFDEPTAALDPEITAQIVSIIRELAETNITQVIVTHEVEVARKTASRVVYMENGHIVEQGDASCFTEPQTEAFKNYLSH [P0AAF6]” the “total protein half-life in vivo” value [1] was 6.06 ± 0.7 h, the “total protein half-life in vivo” value [5] was 5.54 ± 0.19 h and the “total protein half-life in vivo” value [8] was 6.4 h. For the same sequence, the “total protein half-life in vivo” value [9] was 5.57 ± 0.91 h, the “total protein half-life in vivo” value [10] was 4.77 ± 0.37 h and the “total protein half-life in vivo” value [2] was greater than 4 h. The “total protein half-life in vivo” value [3] was 6.19 ± 0.35 h, the “total protein half-life in vivo” value [4] was 11.9 h and the “total protein half-life in vivo” value [11] was 5.55 ± 0.86 h. For the same sequence, the “total protein half-life in vivo” value [6] was 10.5 ± 0.48 h, the “total protein half-life in vivo” value [12] was 6.11 h and the “total protein half-life in vivo” value [7] was 11.6 ± 0.25 h.
